Experimental data published in PMC2891831, “Insight into the Mechanisms of Adenovirus Capsid Disassembly from Studies of Defensin Neutralization” (PLoS Pathogens, 2010).

Assays:
[1] = molecular target: HAdV-51p (virus particle) (human adenovirus 51 (HAdV-51p)); assay: co-sedimentation; as a1 but one concentration, 20 µM HD5; HD5 bound expressed as percent of HD5 bound to HAdV-5 in parallel samples
[2] = molecular target: HAdV-19c (virus particle) (human adenovirus 19c (HAdV-19c)); assay: as above
[3] = molecular target: HAdV-7p (virus particle) (human adenovirus 7 (HAdV-7p)); assay: as above
[4] = molecular target: HAdV-25p (virus particle) (human adenovirus 25 (HAdV-25p)); assay: as above
[5] = molecular target: Ad5.eGFP, replication-defective HAdV-5 vector (virus particle) (human adenovirus 5 (HAdV-5)) (UniProt P04133); assay: co-sedimentation; equilibrium-binding assay; HD5 serially diluted in PBS and mixed with 5 µg purified virus, 1 h on ice; virus/HD5 complex separated from unbound HD5 by ultracentrifugation on a discontinuous nycodenz gradient (50 mM NaCl, 20 mM HEPES pH 7.4, 4°C); bound HD5 quantified after SDS-PAGE (Deep Purple stain) against a standard curve; apparent affinity, no estimate of non-specific binding

human alpha-defensin HD5 (peptide)
percent of the amount of HD5 bound to HAdV-5 [1]: 24.6% | percent of the amount of HD5 bound to HAdV-5 [2]: 32.5% | percent of the amount of HD5 bound to HAdV-5 [3]: 69.3% | percent of the amount of HD5 bound to HAdV-5 [4]: 3.3% | Kd [5]: 14.5 µM | stoichiometry N (HD5 molecules per virus particle) [5]: 2750
